In assay [1] the target is T1, human W3785-hProl.ECD.His (Human-TNFR2-His) protein (human, UniProt P20333 23-257).
T1 construct: extracellular domain; not shown: His tag
T1 sequence (looked up): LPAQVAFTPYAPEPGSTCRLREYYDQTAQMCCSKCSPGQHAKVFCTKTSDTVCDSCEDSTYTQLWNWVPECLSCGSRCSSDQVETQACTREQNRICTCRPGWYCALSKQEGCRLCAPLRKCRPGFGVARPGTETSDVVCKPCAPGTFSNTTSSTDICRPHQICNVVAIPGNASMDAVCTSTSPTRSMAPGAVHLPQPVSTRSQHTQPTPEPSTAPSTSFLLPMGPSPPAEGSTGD
The experiment in a line: BLI (Octet Red96e), antibody on AHC sensor, Human-TNFR2-His in solution, single concentration. As for the experimental part:
After equilibration of the AHC sensor with 0.02% PBST (0.02% Tween 20, pH 7.4, 1*PBS) as buffer for 60 s, the TNFR2 antibody in the sample plate was immobilized for 300 s, and second equilibration was performed for 180 s. 100 nM of human W3785-hProl.ECD.His (Human-TNFR2-His) protein was bound with the TNFR2 antibody for 300 s and then dissociated for 600 s. After dissociation, 10 mM glycine (pH 2.0) was used as regeneration buffer to regenerate for 30 s.
(Biolayer interferometry detects binding as a change in optical thickness at a sensor tip.)

In assay [2] the target is T1, human W3785-hProl.ECD.His …. As to the kind of experiment: BLI (Octet Red96e), antibody on AHC sensor, Human-TNFR2-His in solution, multiple concentrations.
The target in assay [3] is T2, human TNFR2 (tumor necrosis factor receptor 2), on cells (human, UniProt P20333 23-461).
T2 construct: whole, on cells; also called hTNFR2; CHOK1-hTNFR2
T2 sequence (looked up): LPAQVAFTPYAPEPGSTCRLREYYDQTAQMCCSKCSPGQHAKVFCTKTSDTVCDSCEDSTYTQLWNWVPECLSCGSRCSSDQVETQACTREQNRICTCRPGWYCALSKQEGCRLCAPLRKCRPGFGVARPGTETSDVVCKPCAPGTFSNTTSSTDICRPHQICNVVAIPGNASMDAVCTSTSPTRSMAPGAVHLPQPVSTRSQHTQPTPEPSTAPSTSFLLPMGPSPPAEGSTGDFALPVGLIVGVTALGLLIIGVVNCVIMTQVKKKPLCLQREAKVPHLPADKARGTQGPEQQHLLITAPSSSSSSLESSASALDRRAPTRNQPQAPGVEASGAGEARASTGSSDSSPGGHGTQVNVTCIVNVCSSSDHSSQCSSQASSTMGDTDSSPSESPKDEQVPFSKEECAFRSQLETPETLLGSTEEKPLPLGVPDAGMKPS
The experiment in a line: flow cytometry on CHOK1-hTNFR2 cells. As for the experimental part:
CHOK1-hTNFR2 cells were plated at 1×10⁵/well (containing 1% BSA). 100 μL of isotype control and candidate antibodies were added at a concentration of 100 nm and 4-fold diluted in 11 gradients (containing 1% BSA). Cells were incubated at 4° C. for 1 hour and then washed twice with excess FACS buffer. Cells were resuspended in 100 μL of FACS buffer, and 100 μL of goat anti-rat IgG Fc-AF647 (1:500) containing 1% BSA was added, incubated at 4° C. without light for 30 minutes and washed twice with excess FACS buffer. Cells were fixed in fixation buffer and subsequently analyzed by flow cytometry. The FACS method screened for candidate antibodies with high specific binding activity to human TNFR2.
Background: In flow cytometry, cells or beads pass a laser one at a time.

In assay [4] the target is T3, Recombinant human TNFR2-His Tag protein (Sino, Cat: 10417-H08H) (human, UniProt P20333 23-257).
T3 construct: Bought protein; also called hTNFR2; not shown: His tag
T3 sequence (looked up): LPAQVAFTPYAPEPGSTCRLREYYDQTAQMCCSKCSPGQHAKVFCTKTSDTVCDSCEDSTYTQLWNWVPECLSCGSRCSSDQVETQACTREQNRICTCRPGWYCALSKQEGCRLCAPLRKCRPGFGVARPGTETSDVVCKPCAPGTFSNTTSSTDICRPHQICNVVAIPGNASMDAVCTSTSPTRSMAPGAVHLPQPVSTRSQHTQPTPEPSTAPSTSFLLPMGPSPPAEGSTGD
As to the kind of experiment: SPR (Biacore 8K), antibody captured by anti-rat Fc, 10 nM TNFR2-His as analyte, 1:1 model. The procedure:
The CM5 sensor chip was activated at a flow rate of […] for 420 s. The channel was then injected with 30 μg/mL of anti-rat Fc IgG in 10 mM NaAc (pH 4.5) at a flow rate of 10 μL/min. The chip was inactivated with 1 M ethanolamine-hydrochloric acid (GE) for 420 s at a flow rate of 10 μL/min.
Candidate antibodies in running buffer 1×HBS-EP+(10 mM HEPES, 150 mM NaCl, 3 mM EDTA, 0.05% Tween 20, pH 7.4) were captured onto Fc2 with anti-rat Fc IgG at a flow rate of 10 μL/min. The 10 nM recombinant human TNFR2-His Tag protein (Sino; Cat: 10417-H08H) and running buffer were sequentially injected into Fc1-Fc2 at a flow rate of […], bound for 180 s, and then dissociated for 3600 s. 10 mM glycine (pH 1.5) was injected as regeneration buffer after each dissociation.
Result plots for the reference channel Fc1 and the buffer channel were subtracted from the test result plots. The experimental data fit the 1:1 binding model. The molecular weight of 26.6 kDa was used to calculate the molar concentration of recombinant human TNFR2-His Tag protein.

The target of assay [5] is T3, Recombinant human TNFR2-His Tag protein …. The experiment in a line: competition ELISA: captured TNFR2-His, antibody titrated against 1.6 nM biotin-TNF-alpha (competitor). The procedure:
Anti-His antibody (1 μg/mL) was coated at 50 μL/well, incubated at 4° C. overnight and washed 3 times with PBST. 2% BSA was added at 200 μL/well, incubated at room temperature for 1 hour and washed 3 times with PBST. 0.25 μg/mL (containing 2% BSA) of recombinant human TNFR2-His Tag protein (Sino; Cat: 10417-H08H) was added at 50 μL/well, incubated for 1 hour at room temperature and washed 3 times with PBST. Primary antibody (isotype control or candidate antibody) was added at a concentration of 100 nM and diluted 4-fold in 11 gradients with a solution containing 1.6 nM recombinant human TNF-alpha-Biotin protein (Sino; Cat: 10602-HANE-B) and 2% BSA, incubated for 2 hours at room temperature and washed 3 times with PBST. Secondary antibody SA-HRP (1:5000) containing 2% BSA was added at 50 μL/well, incubated for 1 hour at room temperature and washed 3 times with PBST.
After washing, TMB developed the color for 10 min, and the OD450 reading was determined by the enzyme labeler after the display was terminated. Based on the experimental results, it was judged whether the candidate antibodies had ligand blocking activity. As shown in Table 2 and FIG. 2, 2 sequences show better ligand blocking ability than BMK2; 6 sequences show equivalent ligand blocking ability to BMK2.
(In an ELISA, binding on a coated surface is turned into a signal by an enzyme label.)

In assay [6] the target is T1, human W3785-hProl.ECD.His …. The experiment in a line: indirect ELISA on coated Human-TNFR2-His. As for the experimental part: (1) Coating: Human-TNFR2-His was diluted to 0.5 μg/mL with coating solution (1×PBS, pH 7.4), and coated into a 96-well ELISA plate at 100 μL/well at 4° C. overnight. The coating solution was poured off, and the plate was washed with 1×PBST at 300 μL per well, washed with a plate cleaning instrument for 4 times, and patted dry on sheet paper. [0184] (2) Blocking: it was blocked with 3% non-fat dry milk at 300 μL/well, and incubated at 37° C. for 1 h. The blocking solution was poured off, washed by a plate cleaning instrument for 4 times, and patted dry on sheet paper. [0185] (3) Sample dilution: the reference product and the test product were diluted with 3% non-fat dry milk to 10 μg/mL, and this was used as the initial concentration for 3-fold dilution with a total of 11 gradients of dilution, and another one blank well was set up, and only diluent was added. It was incubated at 100 μL/well at 37° C. for 1 h. Liquid in the wells was discarded, washed by a plate cleaning instrument for 4 times, and patted dry on the sheet paper. [0186] (4) Addition of enzyme-labeled secondary antibody: Peroxidase-conjugated AffiniPure F(ab′)2 Fragment Goat Anti-Human IgG was diluted with 3% non-fat dry milk at 1:20,000. It was incubated at 100 μL/well at 37° C. for 1 h. It was washed by a plate cleaning instrument for 6 times and patted dry on sheet paper. […] (5) Color development: TMB color development solution was added at 100 μL/well and wrapped with aluminium foil, and the color was developed at 37° C. without light for 8 min. [0188] (6) Termination of color development: terminal solution 1 M HCl was added to terminate the color development reaction at 100 μL/well. [0189] (7) Reading at 450 nm on the enzyme labeler. [0190]

From patent publication US20250320303A1 (SHENGHE CHINA BIOPHARMACEUTICAL, published 2025) come the findings set out here.

A value given as a limit tells only on which side of the number the result lay.

B1: Antibody 11-xIgG1K (antibody, V domains shown)
VH: EVQLQQSGPELRRPGSSVKLSCKASGYSITDYLLHWVKHSPEHGLEWIGWIDPEDGKTKYGQKFQSKATLTADTSSNAAYMQLSSLTSEDSATYFCAANSGTGTMDAWGQGASVTVSS
VL: DIVMTQSPTSMSISVGDRVTLNCKASQNVGSNVDWYQQKTGQSPKVLLYKASIRYTGVPDRFTGSGSGTEFTFTITNMQAEDLAVYFCMQSKSYPITFGSGTKLEIKR
notes: Rat-human chimeric antibody, human IgG1 kappa
In general, Kd refers to a measure of binding affinity in units of concentration. In general, koff refers to the first-order rate constant of dissociation. Usually kon stands for a measure of how fast the partners come together. The molecule B1 showed a dissociation constant Kd in assay [1] of 0.396 nM. In assay [2], the affinity, expressed as Kd, was 0.317 nM; the koff is 0.000171 s⁻¹; the kon turned out to be 542000 M⁻¹ s⁻¹.

B2: Antibody 11 (antibody, V domains shown)
VH: EVQLQQSGPELRRPGSSVKLSCKASGYSITDYLLHWVKHSPEHGLEWIGWIDPEDGKTKYGQKFQSKATLTADTSSNAAYMQLSSLTSEDSATYFCAANSGTGTMDAWGQGASVTVSS
VL: DIVMTQSPTSMSISVGDRVTLNCKASQNVGSNVDWYQQKTGQSPKVLLYKASIRYTGVPDRFTGSGSGTEFTFTITNMQAEDLAVYFCMQSKSYPITFGSGTKLEIK
notes: Rat monoclonal antibody from a hybridoma
Broadly, the EC50 is the concentration giving half of the maximal effect. A lower EC50 goes with higher potency in that assay. What is called IC50 is the concentration needed to halve the response being measured. Take B2: in assay [3], the response was half-maximal at 0.493 nM (EC50) and the “Maximum average fluorescence value” is 1010. In addition, in assay [4], the equilibrium dissociation constant (Kd) is 1.4 nM, the koff was determined as 0.000169 s⁻¹ and the kon was determined as 120000 M⁻¹ s⁻¹. Also, in assay [5], the half-maximal inhibitory concentration (IC50) was greater than 100 nM and the “Inhibition rate (%)” value is 22.4%.

B3: Antibody 22 (antibody, V domains shown)
VH: EVQLVESGGGLVKPGGSLRLSCAASGFTFSNAWMGWVRQAPEKGLEWVGQIKDKSNNYPTYYAESVKGRFTISRDDSKNTLYLQMNSLKTEDTAVYYCTTYGDFFDYWGQGTLVTVSS
VL: DIQMTQSPSSLSASVGDRVTITCRASEDIYQGLAWYQQKPGKVPKLLLYNANSLHTGVPSRFSGSGSGTDYTLTISSLQPEDFATYFCQQYYDHPLTFGQGTKLEIK
notes: detected with anti-human IgG and captured on AHC sensors
As for B3, in assay [6], the EC50 is 0.0137 µg/mL. Also, in assay [2], binding was characterised by a dissociation constant (Kd) of 0.33 nM, the dissociation rate constant (koff) is 0.000165 s⁻¹ and the kon came out at 500000 M⁻¹ s⁻¹.

B4: Antibody 10-xIgG1K (antibody, V domains shown)
VH: EVQLVETGGGLVQPGKSLKLTCATSGFTFSNAWMGWVRQSPEKQLEWVAQIKDKSNNYPTYYAESVKGRFTISRDDSESSVYLQMNSLKEEDTAIYYCTGYGDFFDYWGQGVVVTVSS
VL: DIQMTQSPASLSASLGETVTIECRASEDIYNGLAWYQQKPGNSPRLLIFNANSLHTGVPSRFSGSGSGTQYSLKINSLQSEDVASYFCQQYYDHPLTFGSGIKLEIKR
notes: as for B1
In assay [6], B4 gave an EC50 of 0.0143 µg/mL. Also, in assay [1], the equilibrium dissociation constant (Kd) came to 0.24 nM. Moreover, in assay [2], the equilibrium dissociation constant (Kd) came to 0.0996 nM, the koff amounted to 8.1e-05 s⁻¹ and the kon was 813000 M⁻¹ s⁻¹.

B5: Antibody 10 (antibody, V domains shown)
VH: EVQLVETGGGLVQPGKSLKLTCATSGFTFSNAWMGWVRQSPEKQLEWVAQIKDKSNNYPTYYAESVKGRFTISRDDSESSVYLQMNSLKEEDTAIYYCTGYGDFFDYWGQGVVVTVSS
VL: DIQMTQSPASLSASLGETVTIECRASEDIYNGLAWYQQKPGNSPRLLIFNANSLHTGVPSRFSGSGSGTQYSLKINSLQSEDVASYFCQQYYDHPLTFGSGIKLEIK
notes: as for B2
As for B5, in assay [3], the concentration giving a half-maximal response (EC50) came to 0.077 nM and the “Maximum average fluorescence value” turned out to be 907. Besides, in assay [4], the equilibrium dissociation constant (Kd) worked out at 0.15 nM, the koff was found to be 7.4e-05 s⁻¹ and the on-rate (kon) is 492000 M⁻¹ s⁻¹. Also, in assay [5], the IC50 was greater than 100 nM and the “Inhibition rate (%)” value amounted to 12.2%.

B6: Antibody 04-xIgG1K (antibody, V domains shown)
VH: EVHLQQSGPEVGRPGSSVKISCKASGYTFTDYIIHWVKQSPGQGLEWMGWIDPDYGNTDYADKFKKKATLTADASSNTAFIHLSRLTSEDTATYFCARDDGSPLVMDAWGQGTSVTVSS
VL: NIQLTQSPSLLSASVGDRVTLSCNGSQNIDNYLAWFQQKLGEAPKLLIYSTYSLQTGIPSRFSGSRSGTDYTLTISSLQPEDVATYFCFQYNNGYMFGAGTKLELKR
notes: as for B1
Take B6: the EC50 in assay [6] came out at 0.00581 µg/mL. Also, the Kd in assay [1] stood at 0.148 nM. For the same molecule, in assay [2], binding was put at a Kd of 0.0606 nM, the off-rate (koff) is 6.65e-05 s⁻¹ and the kon was determined as 1.1e+06 M⁻¹ s⁻¹.
